Molecular target: HLA-A*24 (human)
Test: UV-exchange ELISA, exchange yield grade

| peptide exchange yield [%] | Binder |
| --- | --- |
| 50 to 75 | RYFDVGLHNF [… (SEQ ID NO: 384)] |
| 50 to 75 | QYLELAHSL [… (SEQ ID NO: 366)] |
| 20 to 49 | LYQDHMQYI [… (SEQ ID NO: 367)] |
| 20 to 49 | AYSHLRYVF [… (SEQ ID NO: 371)] |
| 50 to 75 | VYTHEVVTL [… (SEQ ID NO: 369)] |
| 50 to 75 | VYIAELEKI [… (SEQ ID NO: 378)] |
| 50 to 75 | KYPASSSVF [… (SEQ ID NO: 381)] |
| 50 to 75 | RFIGIPNQF [… (SEQ ID NO: 370)] |
| 50 to 75 | RYKPGEPITF [… (SEQ ID NO: 383)] |
| > 75 | VFIDHPVHL [… (SEQ ID NO: 365)] |
| 50 to 75 | KYQNVKHNL [… (SEQ ID NO: 368)] |
| 20 to 49 | VYNYAEQTL [… (SEQ ID NO: 362)] |
| > 75 | VYTGIDHHW [… (SEQ ID NO: 380)] |
| 50 to 75 | KYTEKLEEI [… (SEQ ID NO: 387)] |
| 50 to 75 | AYLPPLQQVF [… (SEQ ID NO: 382)] |
| 20 to 49 | SYAELGTTI [… (SEQ ID NO: 363)] |
| 50 to 75 | KYTDYILKI [… (SEQ ID NO: 375)] |
| 20 to 49 | VFLPRVTEL [… (SEQ ID NO: 374)] |
| 50 to 75 | QYIEELQKF [… (SEQ ID NO: 385)] |
| > 75 | VFIAQGYTL [… (SEQ ID NO: 379)] |
| 50 to 75 | TFSDVEAHF [… (SEQ ID NO: 386)] |
| 50 to 75 | GYISNGELF [… (SEQ ID NO: 373)] |
| 50 to 75 | QYTPHSHQF [… (SEQ ID NO: 377)] |
| 50 to 75 | VYVIEPHSMEF [… (SEQ ID NO: 372)] |
| 50 to 75 | KYLNENQLSQL [… (SEQ ID NO: 364)] |
| 50 to 75 | VYTPVASRQSL [… (SEQ ID NO: 376)] |

The remaining lines, values behind:

| Binder | peptide exchange yield [%] |
| --- | --- |
| KYYRQTLLF [… (SEQ ID NO: 309)] | 20 to 49 |
| GYAFTLPLF [… (SEQ ID NO: 307)] | 50 to 75 |
| IYAPTLLVF [… (SEQ ID NO: 310)] | 50 to 75 |
| QYGGDLTNTF [… (SEQ ID NO: 352)] | 50 to 75 |
| EYLQNLNHI [… (SEQ ID NO: 311)] | > 75 |
| SYQVIFQHF [… (SEQ ID NO: 296)] | > 75 |
| KYSDVKNLI [… (SEQ ID NO: 319)] | > 75 |
| FYIPHVPVSF [… (SEQ ID NO: 315)] | 50 to 75 |
| TYIDTRTVF [… (SEQ ID NO: 297)] | > 75 |
| NYGVLHVTF [… (SEQ ID NO: 359)] | > 75 |
| NYENKQYLF [… (SEQ ID NO: 305)] | > 75 |
| VYFEGSDFKF [… (SEQ ID NO: 316)] | 50 to 75 |
| TYSNSAFQYF [… (SEQ ID NO: 318)] | 50 to 75 |
| VYAEVNSL [VYAEVNSL (SEQ ID NO: 347)] | 50 to 75 |
| RFPVQGTVTF [… (SEQ ID NO: 294)] | 50 to 75 |
| KYQYVLNEF [… (SEQ ID NO: 299)] | 50 to 75 |
| TYGKIDLGF [… (SEQ ID NO: 353)] | 50 to 75 |
| YYLGSGRETF [… (SEQ ID NO: 291)] | 50 to 75 |
| VYPHFSTTNLI [… (SEQ ID NO: 293)] | > 75 |
| EYNEVANLF [… (SEQ ID NO: 304)] | 50 to 75 |
| QFITSTNTF [… (SEQ ID NO: 357)] | > 75 |
| QYSIISNVF [… (SEQ ID NO: 349)] | 50 to 75 |
| RYFKGDYSI [… (SEQ ID NO: 314)] | 50 to 75 |
| EYNSDLHQF [… (SEQ ID NO: 344)] | 50 to 75 |
| EYNSDLHQFF [… (SEQ ID NO: 345)] | 50 to 75 |

| Binder | peptide exchange yield [%] |
| --- | --- |
| NYAFLHRTL [… (SEQ ID NO: 342)] | 50 to 75 |
| AYKSEVVYF [… (SEQ ID NO: 298)] | > 75 |
| SYLTQHQRI [… (SEQ ID NO: 341)] | 50 to 75 |
| VFDTSIAQLF [… (SEQ ID NO: 317)] | 50 to 75 |
| VYPAEQPQI [… (SEQ ID NO: 306)] | 50 to 75 |
| KYTHFIQSF [… (SEQ ID NO: 313)] | > 75 |
| TYADIGGLDNQI [… (SEQ ID NO: 361)] | 50 to 75 |
| TYPSQLPSL [… (SEQ ID NO: 300)] | 50 to 75 |
| LYLPVHYGF [… (SEQ ID NO: 302)] | 50 to 75 |
| VFSPDGHLF [… (SEQ ID NO: 360)] | 50 to 75 |
| VYNEQIRDLL [… (SEQ ID NO: 354)] | 50 to 75 |
| YYSEVPVKL [… (SEQ ID NO: 358)] | 50 to 75 |
| IFHEVPLKF [… (SEQ ID NO: 351)] | 50 to 75 |
| KYGNFIDKL [… (SEQ ID NO: 350)] | 50 to 75 |
| IYVTGGHLF [… (SEQ ID NO: 355)] | 50 to 75 |
| IYLEHTESI [… (SEQ ID NO: 348)] | 50 to 75 |
| NYMPGQLTI [… (SEQ ID NO: 356)] | > 75 |
| KFDDVTMLF [… (SEQ ID NO: 301)] | > 75 |
| SYLVIHERI [… (SEQ ID NO: 295)] | 50 to 75 |
| TFDGHGVFF [… (SEQ ID NO: 308)] | 50 to 75 |
| NYLGGTSTI [… (SEQ ID NO: 343)] | 50 to 75 |
| SYTSVLSRL [… (SEQ ID NO: 312)] | 50 to 75 |
| FYPQIINTF [… (SEQ ID NO: 292)] | > 75 |
| LYSVIKEDF [… (SEQ ID NO: 303)] | 50 to 75 |

Reference: patent publication US20220249633A1
